# Literature values, collected in PMC7599640.
# Target: alpha-bungarotoxin (Bungarus multicinctus) (UniProt P60615)
# Chain of UniProt P60615 (P60615 22-95): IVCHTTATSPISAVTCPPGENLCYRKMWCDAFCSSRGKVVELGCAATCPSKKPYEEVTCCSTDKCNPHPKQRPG
substance,measurement,value
Nicotinic acetylcholine receptor (from UniProt P02710),Kd,0.4 nM
